Assay results from paper doi:10.1101/2021.03.26.437179 (bioRxiv, 2021).

Tests used:
Assay in all cases: pull-down
[1] = target: T1, HIS-PUB26 (Arabidopsis thaliana, UniProt Q9FXA4 1-421)
T1 sequence (looked up): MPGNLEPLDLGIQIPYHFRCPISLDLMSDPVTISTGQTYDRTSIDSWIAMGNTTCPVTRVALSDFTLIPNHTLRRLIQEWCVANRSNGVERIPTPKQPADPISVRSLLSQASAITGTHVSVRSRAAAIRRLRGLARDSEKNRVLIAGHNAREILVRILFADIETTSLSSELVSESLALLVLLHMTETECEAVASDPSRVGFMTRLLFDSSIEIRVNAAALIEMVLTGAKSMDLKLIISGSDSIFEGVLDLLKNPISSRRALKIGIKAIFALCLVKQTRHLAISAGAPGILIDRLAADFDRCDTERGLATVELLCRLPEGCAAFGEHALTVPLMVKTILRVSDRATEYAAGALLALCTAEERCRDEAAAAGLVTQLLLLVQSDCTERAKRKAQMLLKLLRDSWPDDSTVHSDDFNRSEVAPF

[2] = target: T2, GST-PUB25 (Arabidopsis thaliana, UniProt Q9LT79 1-421)
T2 sequence (looked up): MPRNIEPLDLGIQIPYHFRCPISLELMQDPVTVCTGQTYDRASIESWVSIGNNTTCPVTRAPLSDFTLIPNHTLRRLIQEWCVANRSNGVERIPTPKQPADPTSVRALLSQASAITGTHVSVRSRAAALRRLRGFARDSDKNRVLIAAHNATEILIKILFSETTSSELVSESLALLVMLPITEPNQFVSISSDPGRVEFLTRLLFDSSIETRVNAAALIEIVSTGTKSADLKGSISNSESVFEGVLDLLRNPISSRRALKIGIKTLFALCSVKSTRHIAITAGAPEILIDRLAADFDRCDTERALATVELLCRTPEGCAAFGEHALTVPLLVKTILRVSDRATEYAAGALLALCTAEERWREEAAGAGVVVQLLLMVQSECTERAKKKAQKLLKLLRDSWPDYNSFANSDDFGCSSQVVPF

[3] = target: T3, GST-PUB26 (Arabidopsis thaliana, UniProt Q9FXA4 1-421)
T3 sequence (looked up): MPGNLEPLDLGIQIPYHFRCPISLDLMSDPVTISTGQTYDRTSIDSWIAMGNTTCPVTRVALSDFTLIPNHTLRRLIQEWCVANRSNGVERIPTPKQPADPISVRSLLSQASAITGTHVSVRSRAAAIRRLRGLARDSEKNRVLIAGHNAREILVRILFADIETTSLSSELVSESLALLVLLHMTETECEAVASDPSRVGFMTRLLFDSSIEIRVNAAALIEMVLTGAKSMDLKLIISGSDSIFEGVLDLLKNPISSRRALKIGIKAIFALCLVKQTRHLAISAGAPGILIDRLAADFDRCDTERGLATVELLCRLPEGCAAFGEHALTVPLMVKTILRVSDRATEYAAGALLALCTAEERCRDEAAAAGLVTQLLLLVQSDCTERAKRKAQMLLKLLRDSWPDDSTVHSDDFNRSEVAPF

Measured: binding result

B1: MBP-MYB6 (natural protein, Arabidopsis thaliana, UniProt Q38851 1-236, looked up)
chain: MGRSPCCEKAHTNKGAWTKEEDQRLVDYIRNHGEGCWRSLPKSAGLLRCGKSCRLRWINYLRPDLKRGNFTDDEDQIIIKLHSLLGNKWSLIAGRLPGRTDNEIKNYWNTHIKRKLLSHGIDPQTHRQINESKTVSSQVVVPIQNDAVEYSFSNLAVKPKTENSSDNGASTSGTTTDEDLRQNGECYYSDNSGHIKLNLDLTLGFGSWSGRIVGVGSSADSKPWCDPVMEARLSLL
binds: [1] | [2] | [3]
